What all share (assay): fluorescence anisotropy
(Polarisation of emitted light reports the rotation of a fluorescent probe.)

Series [1] has as its target T1, ScPif1p (237-780) (Saccharomyces cerevisiae, UniProt P07271 237-780).
T1 sequence: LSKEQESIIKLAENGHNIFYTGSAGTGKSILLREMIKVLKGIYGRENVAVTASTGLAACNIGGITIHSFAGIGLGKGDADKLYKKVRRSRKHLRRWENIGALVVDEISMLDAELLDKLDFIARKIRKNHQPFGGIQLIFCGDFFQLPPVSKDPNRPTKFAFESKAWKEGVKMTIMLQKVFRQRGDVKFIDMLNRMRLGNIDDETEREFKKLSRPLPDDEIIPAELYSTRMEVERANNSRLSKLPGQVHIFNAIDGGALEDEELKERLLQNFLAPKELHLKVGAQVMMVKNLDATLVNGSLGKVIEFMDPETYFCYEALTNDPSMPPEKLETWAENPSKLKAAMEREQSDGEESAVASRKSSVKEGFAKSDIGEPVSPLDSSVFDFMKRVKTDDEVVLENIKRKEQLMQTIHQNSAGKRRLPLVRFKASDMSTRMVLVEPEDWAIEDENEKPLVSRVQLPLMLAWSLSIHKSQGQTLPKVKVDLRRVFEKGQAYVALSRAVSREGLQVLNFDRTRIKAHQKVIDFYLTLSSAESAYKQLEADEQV

The target in series [2] is T2, ScPif1p R324N (Saccharomyces cerevisiae, UniProt P07271 237-780, R324N).
T2 sequence: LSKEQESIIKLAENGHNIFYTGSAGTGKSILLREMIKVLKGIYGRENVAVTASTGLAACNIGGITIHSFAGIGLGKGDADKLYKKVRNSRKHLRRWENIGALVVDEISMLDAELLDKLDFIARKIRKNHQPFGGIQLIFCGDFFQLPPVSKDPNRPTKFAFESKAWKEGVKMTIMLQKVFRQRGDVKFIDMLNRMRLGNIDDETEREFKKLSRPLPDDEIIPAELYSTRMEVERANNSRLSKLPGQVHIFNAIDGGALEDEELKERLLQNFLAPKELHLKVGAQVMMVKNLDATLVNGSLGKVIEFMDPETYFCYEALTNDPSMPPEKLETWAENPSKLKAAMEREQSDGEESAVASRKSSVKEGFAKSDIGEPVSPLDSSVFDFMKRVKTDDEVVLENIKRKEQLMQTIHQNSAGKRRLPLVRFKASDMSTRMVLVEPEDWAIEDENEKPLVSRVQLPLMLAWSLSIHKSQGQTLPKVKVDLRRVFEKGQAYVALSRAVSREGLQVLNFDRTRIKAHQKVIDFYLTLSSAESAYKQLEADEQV

Series [3] concerns the target T3, ScPif1p R326C (Saccharomyces cerevisiae, UniProt P07271 237-780, R326C).
T3 sequence: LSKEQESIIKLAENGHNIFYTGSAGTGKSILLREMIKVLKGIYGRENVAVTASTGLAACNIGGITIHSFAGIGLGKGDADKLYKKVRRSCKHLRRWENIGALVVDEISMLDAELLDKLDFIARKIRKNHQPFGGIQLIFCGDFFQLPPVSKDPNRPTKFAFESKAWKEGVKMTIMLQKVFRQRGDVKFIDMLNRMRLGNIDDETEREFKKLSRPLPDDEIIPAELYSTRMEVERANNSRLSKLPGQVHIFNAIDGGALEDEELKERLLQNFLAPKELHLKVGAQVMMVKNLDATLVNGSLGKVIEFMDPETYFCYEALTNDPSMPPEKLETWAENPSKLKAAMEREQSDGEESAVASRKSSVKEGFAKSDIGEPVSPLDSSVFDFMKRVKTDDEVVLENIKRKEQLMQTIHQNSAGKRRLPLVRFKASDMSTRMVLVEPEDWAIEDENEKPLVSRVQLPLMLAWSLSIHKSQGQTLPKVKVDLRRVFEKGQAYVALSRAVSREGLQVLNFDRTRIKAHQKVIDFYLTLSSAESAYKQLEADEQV

The target of series [4] is T4, ScPif1p R594A/K595A (Saccharomyces cerevisiae, UniProt P07271 237-780, R594A;K595A).
T4 sequence: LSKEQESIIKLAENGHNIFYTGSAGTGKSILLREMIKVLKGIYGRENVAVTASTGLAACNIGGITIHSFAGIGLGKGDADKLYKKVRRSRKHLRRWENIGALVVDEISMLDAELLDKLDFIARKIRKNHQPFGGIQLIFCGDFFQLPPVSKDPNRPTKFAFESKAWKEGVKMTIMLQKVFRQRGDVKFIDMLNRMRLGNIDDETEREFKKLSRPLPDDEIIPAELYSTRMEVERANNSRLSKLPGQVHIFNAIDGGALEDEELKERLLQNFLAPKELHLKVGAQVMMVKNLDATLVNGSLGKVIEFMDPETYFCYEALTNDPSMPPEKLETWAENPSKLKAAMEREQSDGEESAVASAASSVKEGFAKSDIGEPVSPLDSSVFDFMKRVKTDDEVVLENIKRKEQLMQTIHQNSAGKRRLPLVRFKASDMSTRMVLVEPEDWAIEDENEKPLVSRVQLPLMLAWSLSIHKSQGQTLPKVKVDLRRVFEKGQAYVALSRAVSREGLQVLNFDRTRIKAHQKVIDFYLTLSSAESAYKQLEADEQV

In series [5] the target is T1, ScPif1p (237-780). This is another data set of the same source.
Series [6] deals with T1, ScPif1p (237-780). The source holds these as a separate data set.

The Kd is a measure of binding affinity in units of concentration. A lower Kd goes with a tighter complex.

Like-named read-outs stand apart in the source and are kept apart here.

As to GTGTGTGTGGTG (ssDNA) [GR12], the dissociation constant Kd in series [1] came out at 6.1 nM; in series [2], 11.4 ± 4.3 nM; in series [3], 12.4 ± 2.1 nM; in series [4] it was 10.5 ± 3.5 nM; in series [5], 11.2 ± 2.1 nM.

As for AGGGTGGGTGGGTGGGT (structured_DNA) [F-G417], the Kd came to 25 ± 5.1 nM in series [6], 87.9 ± 7.1 nM in series [2], 105 ± 8.4 nM in series [3] and 72.9 ± 4.9 nM in series [4].

B1: dsDNA16bp (dsDNA)
DNA 1: CTCTGCTCGACGGATT
DNA 2: AATCCGTCGAGCAGAG
For the molecule B1, the dissociation constant Kd in series [2] was determined as 57.9 ± 1.1 nM; in series [3], 78.3 ± 9.6 nM; in series [4] it was 78.9 ± 9.3 nM; in series [5], 81.3 ± 10.3 nM.
